Measured values from patent US20230250154A1 (CYTONICS, published 2023).

B1: Variant A2M, bait region SEQ ID NO 137 (other)
chain: SVSGKPQYMVLVPSLLHTETTEKGCVLLSYLNETVTVSASLESVRGNRSLFTDLEAENDVLHCVAFAVPKSSSNEEVMFLTVQVKGPTQEFKKRTTVMVKNEDSLVFVQTDKSIYKPGQTVKFRVVSMDENFHPLNELIPLVYIQDPKGNRIAQWQSFQLEGGLKQFSFPLSSEPFQGSYKVVVQKKSGGRTEHPFTVEEFVLPKFEVQVTVPKIITILEEEMNVSVCGLYTYGKPVPGHVTVSICRKYSDASDCHGEDSQAFCEKFSGQLNSHGCFYQQVKTKVFQLKRKEYEMKLHTEAQIQEEGTVVELTGRQSSEITRTITKLSFVKVDSHFRQGIPFFGQVRLVDGKGVPIPNKVIFIRGNEANYYSNATTDEHGLVQFSINTTNVMGTSLTVRVNYKDRSPCYGYQWVSEEHEEAHHTAYLVFSPSKSFVHLEPMSHELPCGHTQTVQAHYILNGGTLLGLKKLSFYYLIMAKGGIVRTGTHGLLVKQEDMKGHFSISIPVKSDIAPVARLLIYAVLPTGDVIGDSAKYDVENCLANKVDLSFSPSQSLPASHAHLRVTAAPQSVCALRAVDQSVLLMKPDAELSASSVYNLLPEKDLTGFPGPLNDQDDEDCINRHNVYINGITYTPVSSTNEKDMYSFLEDMGLKAFTNSKIRKPKMCPQLEQYEMHGPSEDLVVQIKEEEGLGSIPENFFGVSELEGRGSVEEPHTKLRKYFPETWIWDLVVVNSAGVAEVGVTVPDTITEWKAGAFCLSEDAGLGISSTASLRAFQPFFVELTMPYSVIRGEAFTLKATVLNYLPKCIRVSVQLEASPAFLAVPVEKEQAPHCICANGRQTVSWAVTPKSLGNVNFTVSAEALESQELCGTEVPSVPEHGRKDTVIKPLLVEPEGLEKETTFNSLLCPSGGEVSEELSLKLPPNVVEESARASVSVLGDILGSAMQNTQNLLQMPYGCGEQNMVLFAPNIYVLDYLNETQQLTPEIKSKAIGYLNTGYQRQLNYKHYDGSYSTFGERYGRNQGNTWLTAFVLKTFAQARAYIFIDEAHITQALIWLSQRQKDNGCFRSSGSLLNNAIKGGVEDEVTLSAYITIALLEIPLTVTHPVVRNALFCLESAWKTAQEGDHGSHVYTKALLAYAFALAGNQDKRKEVLKSLNEEAVKKDNSVHWERPQKPKAPVGHFYEPQAPSAEVEMTSYVLLAYLTAQPAPTSEDLTSATNIVKWITKQQNAQGGFSSTQDTVVALHALSKYGAATFTRTGKAAQVTIQSSGTFSSKFQVDNNNRLLLQQVSLPELPGEYSMKVTGEGCVYLQTSLKYNILPEKEEFPFALGVQTLPQTCDEPKAHTSFQISLSVSYTGSRSASNMAIVDVKMVSGFIPLKPTVKMLERSNHVSRTEVSSNHVLIYLDKVSNQTLSLFFTVLQDVPVRDLKPAIVKVYDYYETDEFAIAEYNAPCSKDLGNADYKDDDDKGASHHHHHH
B2: Variant A2M, bait region SEQ ID NO 143 (other)
chain: SVSGKPQYMVLVPSLLHTETTEKGCVLLSYLNETVTVSASLESVRGNRSLFTDLEAENDVLHCVAFAVPKSSSNEEVMFLTVQVKGPTQEFKKRTTVMVKNEDSLVFVQTDKSIYKPGQTVKFRVVSMDENFHPLNELIPLVYIQDPKGNRIAQWQSFQLEGGLKQFSFPLSSEPFQGSYKVVVQKKSGGRTEHPFTVEEFVLPKFEVQVTVPKIITILEEEMNVSVCGLYTYGKPVPGHVTVSICRKYSDASDCHGEDSQAFCEKFSGQLNSHGCFYQQVKTKVFQLKRKEYEMKLHTEAQIQEEGTVVELTGRQSSEITRTITKLSFVKVDSHFRQGIPFFGQVRLVDGKGVPIPNKVIFIRGNEANYYSNATTDEHGLVQFSINTTNVMGTSLTVRVNYKDRSPCYGYQWVSEEHEEAHHTAYLVFSPSKSFVHLEPMSHELPCGHTQTVQAHYILNGGTLLGLKKLSFYYLIMAKGGIVRTGTHGLLVKQEDMKGHFSISIPVKSDIAPVARLLIYAVLPTGDVIGDSAKYDVENCLANKVDLSFSPSQSLPASHAHLRVTAAPQSVCALRAVDQSVLLMKPDAELSASSVYNLLPEKDLTGFPGPLNDQDDEDCINRHNVYINGITYTPVSSTNEKDMYSFLEDMGLKAFTNSKIRKPKMCPQLEQYEMHGPIPENFFGVSEDLVVQIEGEGEGEGEAIPMSIPTEPHTKLRKYFPETWIWDLVVVNSAGVAEVGVTVPDTITEWKAGAFCLSEDAGLGISSTASLRAFQPFFVELTMPYSVIRGEAFTLKATVLNYLPKCIRVSVQLEASPAFLAVPVEKEQAPHCICANGRQTVSWAVTPKSLGNVNFTVSAEALESQELCGTEVPSVPEHGRKDTVIKPLLVEPEGLEKETTFNSLLCPSGGEVSEELSLKLPPNVVEESARASVSVLGDILGSAMQNTQNLLQMPYGCGEQNMVLFAPNIYVLDYLNETQQLTPEIKSKAIGYLNTGYQRQLNYKHYDGSYSTFGERYGRNQGNTWLTAFVLKTFAQARAYIFIDEAHITQALIWLSQRQKDNGCFRSSGSLLNNAIKGGVEDEVTLSAYITIALLEIPLTVTHPVVRNALFCLESAWKTAQEGDHGSHVYTKALLAYAFALAGNQDKRKEVLKSLNEEAVKKDNSVHWERPQKPKAPVGHFYEPQAPSAEVEMTSYVLLAYLTAQPAPTSEDLTSATNIVKWITKQQNAQGGFSSTQDTVVALHALSKYGAATFTRTGKAAQVTIQSSGTFSSKFQVDNNNRLLLQQVSLPELPGEYSMKVTGEGCVYLQTSLKYNILPEKEEFPFALGVQTLPQTCDEPKAHTSFQISLSVSYTGSRSASNMAIVDVKMVSGFIPLKPTVKMLERSNHVSRTEVSSNHVLIYLDKVSNQTLSLFFTVLQDVPVRDLKPAIVKVYDYYETDEFAIAEYNAPCSKDLGNADYKDDDDKGASHHHHHH
B3: Variant A2M, bait region SEQ ID NO 141 (other)
chain: SVSGKPQYMVLVPSLLHTETTEKGCVLLSYLNETVTVSASLESVRGNRSLFTDLEAENDVLHCVAFAVPKSSSNEEVMFLTVQVKGPTQEFKKRTTVMVKNEDSLVFVQTDKSIYKPGQTVKFRVVSMDENFHPLNELIPLVYIQDPKGNRIAQWQSFQLEGGLKQFSFPLSSEPFQGSYKVVVQKKSGGRTEHPFTVEEFVLPKFEVQVTVPKIITILEEEMNVSVCGLYTYGKPVPGHVTVSICRKYSDASDCHGEDSQAFCEKFSGQLNSHGCFYQQVKTKVFQLKRKEYEMKLHTEAQIQEEGTVVELTGRQSSEITRTITKLSFVKVDSHFRQGIPFFGQVRLVDGKGVPIPNKVIFIRGNEANYYSNATTDEHGLVQFSINTTNVMGTSLTVRVNYKDRSPCYGYQWVSEEHEEAHHTAYLVFSPSKSFVHLEPMSHELPCGHTQTVQAHYILNGGTLLGLKKLSFYYLIMAKGGIVRTGTHGLLVKQEDMKGHFSISIPVKSDIAPVARLLIYAVLPTGDVIGDSAKYDVENCLANKVDLSFSPSQSLPASHAHLRVTAAPQSVCALRAVDQSVLLMKPDAELSASSVYNLLPEKDLTGFPGPLNDQDDEDCINRHNVYINGITYTPVSSTNEKDMYSFLEDMGLKAFTNSKIRKPKMCPQLEQYEMHGPEAIPMSIPTSELEGRGSIPENFFGVEGEGEGEGEPHTKLRKYFPETWIWDLVVVNSAGVAEVGVTVPDTITEWKAGAFCLSEDAGLGISSTASLRAFQPFFVELTMPYSVIRGEAFTLKATVLNYLPKCIRVSVQLEASPAFLAVPVEKEQAPHCICANGRQTVSWAVTPKSLGNVNFTVSAEALESQELCGTEVPSVPEHGRKDTVIKPLLVEPEGLEKETTFNSLLCPSGGEVSEELSLKLPPNVVEESARASVSVLGDILGSAMQNTQNLLQMPYGCGEQNMVLFAPNIYVLDYLNETQQLTPEIKSKAIGYLNTGYQRQLNYKHYDGSYSTFGERYGRNQGNTWLTAFVLKTFAQARAYIFIDEAHITQALIWLSQRQKDNGCFRSSGSLLNNAIKGGVEDEVTLSAYITIALLEIPLTVTHPVVRNALFCLESAWKTAQEGDHGSHVYTKALLAYAFALAGNQDKRKEVLKSLNEEAVKKDNSVHWERPQKPKAPVGHFYEPQAPSAEVEMTSYVLLAYLTAQPAPTSEDLTSATNIVKWITKQQNAQGGFSSTQDTVVALHALSKYGAATFTRTGKAAQVTIQSSGTFSSKFQVDNNNRLLLQQVSLPELPGEYSMKVTGEGCVYLQTSLKYNILPEKEEFPFALGVQTLPQTCDEPKAHTSFQISLSVSYTGSRSASNMAIVDVKMVSGFIPLKPTVKMLERSNHVSRTEVSSNHVLIYLDKVSNQTLSLFFTVLQDVPVRDLKPAIVKVYDYYETDEFAIAEYNAPCSKDLGNADYKDDDDKGASHHHHHH

The binders below were run against Elastase (assay: cell-based or functional assay).

| Binder | Protease Inhibition (% of WT) |
| --- | --- |
| B1 | 100 % of WT |
| B2 | 250 % of WT |
| B3 | 75 % of WT |

Each binder was assayed against T1, Cathepsin G (UniProt P08311 21-244) (assay: cell-based or functional assay).
T1 sequence (looked up): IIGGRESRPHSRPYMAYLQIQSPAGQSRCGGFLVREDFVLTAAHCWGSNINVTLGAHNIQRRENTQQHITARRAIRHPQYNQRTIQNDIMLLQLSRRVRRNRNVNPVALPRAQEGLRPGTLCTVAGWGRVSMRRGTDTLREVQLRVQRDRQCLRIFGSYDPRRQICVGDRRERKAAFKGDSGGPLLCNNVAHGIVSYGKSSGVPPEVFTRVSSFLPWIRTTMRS

| Binder | Protease Inhibition (% of WT) |
| --- | --- |
| B1 | 450 % of WT |
| B2 | 350 % of WT |
| B3 | 100 % of WT |
